Test: soluble fraction after stress (log2 fold change); higher = more stays soluble; pooled small domains, quantitative proteomics
Conditions: stress: 75 degC
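Also: 20 min heating vs room temperature control held 20 min.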

Row | Sequence | soluble fraction (log2)
1 | HMEYDEVVVVKQIIPKGKNTMVAHLKHLKEHGETGFLKQAVGYLKLHASEIPFSVDAVISEVH | -0.253
2 | HMEYDYKVIDFFKDYYSYLNYQEIEPNILDKQLTTLTEEESAKIAGIMKLDYEDFTRGIEIVTGS | -0.536
3 | HMEYLIENYGSVINQARMKKGMTQEQLSSKTGVSQAYIRSIESQNMKPTDAVARKIEFELGIKLFE | -1.05
4 | HMEYSKSIKRLREDKNLTVEELAKRLSLDVEEIQKAEDGEDVDQKTLEAIARYFGVQYDSLVEGTAKSK | -0.0335
5 | HMEYTTEELDSLLKLYFQTHESINRNEFEQLTSYTRTTASRRLKTLVQAGKLQNIGLYRFPVYKPTEGNF | -2.82
6 | HMEYYWHQLKGLEVVNTRGESLGRVRRLLETGANDVLVLEGEQERLIPYVPDTIKQVDLAKGLIEVAWDRD | -0.17
7 | HMFAADIGVGIVDADSLRVRSEPSTGAPIVTSLLRGTQVTVQEKLDGWYRITYNDVSGFVSAEYLIFTADE | -0.358
8 | HMFAGEWKQDASGWWYQNDDGSFTRNGWQNISGKQYYFNENGYMLHDTTTPDGKQVGSDGSLV | 0.0573
9 | HMFAKVEGITGDILDKLQQQRGFLALSDKSSPEAIYDTFGVSKKVFKQAIGTLFKQQKISIEAEGIRLV | -1.56
10 | HMFASSADGVEGLKTNPIFASTKEKSDAGKLLYTRYLAIGIFRMLELAKATDPKALEALVEAGG | 0.259
11 | HMFDDEELDTFAGRQSDSYDQQEVEQFSDVLHTMRQDEVQAWWRSLTLRGISLPDELKDEVIML | -0.481
12 | HMFDDLSTNLRDLAHNYIEKYSPSKQQLKVFLLKKYLMKFKGSKTKKEISEIIDKIISNLEENKYLNDEL | 0.36
13 | HMFDFMVLGQAIKKARESKEMTREQLAEILDVAPRHIQSIENEGQYPSFPLFIRLVTMFNISVDQY | -2.31
14 | HMFDGNIKIVEDAFSVTIVARGTEVKISGDPENVYLASKTVEGLLTLIDKGEAITDQRVHYVIGLVREG | -2.45
15 | HMFDGTLSIYPNPSKGIFNLDLLNVKDGEYTITVDNLLGQEVYSEIRNVINSSSKTLDLSNLTKGV | -0.204
16 | HMFDLKKIYGTILDETKSSLLLSTDDGREVQIIKTDGTEVLASGLGVYVEVAYRDETPDGYPIALTI | -0.41
17 | HMFDTVKIGKRIAELRKKRDMTQFELADRLGISYQAVSNWERGNSMPDIAKLPELAEIFGVTVDEILG | 0.283
18 | HMFEARNTTFSEDGKTITETYGVKRIETEFVSDSTIVQKLYDNDVLTKTKTITFSADGLSIKEDV | -0.0561
19 | HMFEDYNELDEYLETRFIPTYVLLKQRKNANGEIDHFPSIRLQHIMALKLSEAELEHVMNYLKEKNIRVG | -1.68
20 | HMFEKVKLTLTIPSKYSGSTYSALRNRMNKFSKEEWLSNGDLKIEIEVTGGQKTDIYTLINKLTNGEAIIE | -1.25
21 | HMFELDELDLVILKNLANGLSKKQIRVKLKKMDLRPNSESAIDKRVSKLFDEFGAKNSTELVAKLIREGL | -2.71
22 | HMFELTVGTPIRVIREPYFGKLGTVTELPAQLMVVESGTEVRVLKAKIEGEGEVLVPRANVEIIATG | -1.38
23 | HMFELVKISENIPIRDLAETLKTTPNEIIKELMVFGVLANINQTLNFDLASKVADKLGFEVELL | -0.266
24 | HMFEMPTSLVRTLSAIAIKQPVMQSEIIKLRGAGAYDHIKELIIRELVHRKEEGRSPILTTTKKFQEYFRL | -2.52
25 | HMFERIYVFSRDGDIIELPKGSTVLDFAYHVHTHVGNRAQAARVNKRYVPLTYQLKTGEQVEIIIS | -1.44
26 | HMFEYDEEEYEKLGPNADLTIKSMTDWGQSLVRKGVWSESDFEEFKIMGGTAQGLRALQKVRSYY | -0.649

Row | Sequence | soluble fraction (log2)
27 | HMFFAGLSPEAARTLDSLPLHSWSSVEQIARQAGLNIETVRKELGLLELSGIALSRQGRFRRA | -1.07
28 | HMFFFILNKGAKSGGEITHAVLNGSIVSKPAGWDAFHGLVLAKEKLSSEEIQRQMKELGVEMEIVPL | -2.4
29 | HMFGDQMQSYLSRLSQIDVDIIALKYGDNFTYREIGLILEMSEDSVRQRAVRARKKLETMIQKG | -3.31
30 | HMFGEDNLKSKEIKERVTEVAKHADDPVWIEARRKWKDENPDQNVKDYQQAYISGRIHELPWDVSYI | 0.117
31 | HMFGEKEFYQWIGKTAGEKFSGLPAAVIKSLYKYWREYNLSEEDIMGFIRQTELLPKRTPLDVELFFEK | -0.857
32 | HMFGELTPDTAKRFLLTAREQEMASLIAQGLTNKEIAFRLGISEATVRTHIYNLFQKVGVQSRIELLNVLH | -1.69
33 | HMFGNTGETSGTGVAFTRSPVDGENKIFGEFLVNAQGEDVVAGIRTPQPISEMEQAFPEVYSKFESVAEIL | 0.0261
34 | HMFHDALVSFAERRVIFMKELVNRLNEARKAYYEGESIMSDKEYDNLYDKLVKMELTTGVVLPNSPTEEVG | -1.33
35 | HMFIEHSKYKLSFKYNQLGKISNVINSNNGIIMDKHFDQNITLLAKLTENTFQEIIKHFPTIIIKRL | -3.74
36 | HMFIEPPSLEELERRLRGRGTETDDVVDMRMRTALVELSQKMEYDYRLVNDDLDEATRQLVAYVNEIAEQ | -0.0555
37 | HMFIPMTDAQRHLFANKLAKLPELSEYSRGTESYEDFAIRIADMLLEPPKFRMFYPLLEQLGF | -1.77
38 | HMFIVTDQMQRVLDYITEKEKATNNDLEELLGVKSTRIYTITRKLIQHNLIIPVGKGKNKYYIL | -0.902
39 | HMFKDVTVPSVINKTEAEATNMLKGLNLVVSVEYEENANKSDGIVTAQNVNANKVIKEGETVTITVNKQP | 0.113
40 | HMFKNWMPFDEARIFVRKLKFNSHDEFRKYLKANEINIPSKPWSTYKGKGWVSIGDFLGTHR | -3.26
41 | HMFLPGETFDVKIVKIGEGENQGVGYLDDGTMIVIENGRDHLNELARVIVTRVLQNSAGQMIFSDYEE | -2.21
42 | HMFLTPLEETRLAIEEVVIAKNIAIDLFPRESAIRKQQHELIYHYHLKGLTVGTEKNKRLRIFPRGY | 0.0279
43 | HMFLTSDEGKIMQLLEDKQRITRKDAQELLGVSQSTAGRILKTLVDNGQITQRGGGRTTRYELIK | 0.104
44 | HMFMKNTEVALAIKGKFSNQTTITSKELVLFLSDLFPELSNKTIPWKINQLKAENLIYQTGRGIYTFN | -2.53
45 | HMFMMVAGHLQIKNEKYYMVLELRTEQGERKTKWIGTGLAVKGNKRRAEAMLEETRTKYLSPV | -2.18
46 | HMFMPGTIIKQFRELRNYSQDYVSRKMGISQNAYSKIENNITQLTVTHVKQLSSILDVPIVELLR | -3.71
47 | HMFMSDDDIRILVKEWLQSQNRKSYQLAEEIGIRPQTFYAQMSVRKISANTKKALSRIIPGL | -0.769
48 | HMFMSKTAMVAIISEADKYGLFNIPEGLSVEKTADEIFEGHIEVDFDKLKNELDFVYKNEALEKQFQEN | -0.852
49 | HMFNPEQDPKQLTGRERAVADLIGLGANNAEIAIRLSMSERTVKAHLTSIFQQLNVRDRVQLALVMNQL | -0.493
50 | HMFPASQPVPTDLNQIVRAGLEVFSGRLEGIDVRVSLEPELPRVNVDPEHFKRIVVNLVDNAAEAMQNS | 0.183
51 | HMFPATAPQLKAVHAILGKQGISDELDKLARVNEWLVGLNKEPVAAISELDKHTTSGLIDHLQGELNE | 0.297
52 | HMFPDLSPEQQRIVDVLTKSNDLQLNQLSVKTGIPIGDITSILFQMEMMGVVKPMAGGNYHLL | -1.68

Row | Sequence | soluble fraction (log2)
53 | HMFPDLTEDEQLIVDVLQRTGDLQINSLIVEANIPVNKMSEILFELEMKGVIRTLAGGVYQLL | -2.05
54 | HMFPDRLRELRKGRNITLETLAEEMNKHLEPGQKPNTAAQIGNWERGDRSPSYIEVRKLADFFNVSMDFL | -0.586
55 | HMFPELNAEETQVVQLLQKQTEGMQVNSLVVESNIPITRMSGILFELELKGIIRNYAGGVYKL | -3.2
56 | HMFPELSEEAKVIVDALSKENDQQLNVLIANTGMAVGTMQAKLFELEMQGVVKPLAGSVYHLM | 0.111
57 | HMFPELTDDEQLIVSTLAKTNDMQINMLAVRTGIPVQRMSALLFSLEMKGVVKMYAGGTYHLL | -2.93
58 | HMFPNQLLISRLSNQLSASERFAAVSSIAQLKNIDYDVLHVLVHTMNSDPNSNVRLAALEALSR | -0.459
59 | HMFPQQGEIRQGVIASITPDQILVNVGTKSEGIISGKELEAISKSERDSLNVDQKIAVYILDPEDSNG | 0.395
60 | HMFQNPSQVVTTRVGELRAAIPTAQQGRITMGVAVVEDANSVRSVLISTSEPRGYLRPGVTLGPGETMV | 0.0661
61 | HMFQPFFENLRKASIPVSLREYLTFLEGMKKGLVTYDIEAFYFLARAAMVKDERNIDKFDRAFSATFKG | -0.306
62 | HMFQTAADVAYRIISQKILDGEFPPGMKLSRRKMAEVTSVSVIPVIEALKKLEEDGLVESKPQWGSFVTI | -1.69
63 | HMFQYEKIKDYILTGLEEGTWQAGDKIPSEAELVMSLNVSRMTVNRAVRELANSGLLVRIPGAGTFVATE | -0.643
64 | HMFSIDRNIRRLRKEAGLTQEELAQKLFVTRQTISLWELGKVHPDLETLQKLAEQFQVDLLQVLYGPE | -2.33
65 | HMFSLDMDRLVRPGFMASGNVTFSDGVTGKWALDQMGRLALETAQKGYQPSPADVQAFQRELQQQLQRQG | 0.0415
66 | HMFSPTKLKEKRESQGLSQSQLASSLGISRASYFNWESGKTKPNQNNLSKLSEILNVDPRYF | 0.489
67 | HMFSSVSVPAELSNQRFDKVVAELTPDLSRSKIKQLILLGKVLLNGEVTPPKQKVETGDEIEIFYTRQIE | -0.797
68 | HMFTLDIGTIIRNRRLELNLTLEEIGNAVGVSKSTVQKWENGFISNMKRDKISALAKVLNINPVTLITGEY | -3.44
69 | HMFTLNEIIGQKIRNARISAGLTLDELSKMTGISAAQLSSLETGYRRANIDTLYAIAKAIGIDVSNLLKY | -1.39
70 | HMFTRFTVAQDGWTIGGFTAKEMAVSTAKQHAVDTGKPVTVVAHVAGGGSREAIFNSDGTNDKIWN | 0.065
71 | HMFTYEETIGKSADVYLTIPALKAGKGKIIISVRGSVHELDAMTNNAEKISTGAVVKIVRIEHGNILLVEN | -1.69
72 | HMFVEKDSIINKGNNSYNFVITDNNNKVLVEYNGLLPDLFKEEQGVVIEGRLKSDFIIHAFTVF | -0.0707
73 | HMFVGVDMAVKEEIGKEGVAFTDLRPAGKVSIGDDVYDAVSETGAFITRGTSVRVLKYQAGQVYVVK | -1.3
74 | HMFVTFFHELKSAGVPVSLREYLTLMEAMDRDLASRRVEEFYYLARTALVKDERNLDKFDRVFGHVFKGL | -4.08
75 | HMFWVESDVDFVDKTSAHNAIKENERVIGMYISYRLNGTWTTEQYVGIDTSKDNWENPDNWNIL | -1.42
76 | HMFYLPEPLTEQELRILGMLLDGRSNPEIAAELFIAVGTAKWHVHNILQKLGVANRAQAIVKAHELGLT | -2.08
77 | HMFYNELMNFIVYKDSQKIGKIVNINDKLPQPVFEVLINDKKFMVPIHDDFIEKIDKEKKSIHIVIPDGLL | -0.684

— the domain aggregation screens of Martell et al. (2025)
